assay: yeast display, Sf9 membrane polyspecificity reagent, FACS + sequencing; frameworks hold sequencing errors
Summary of the method: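 Galactose induction of a Saccharomyces cerevisiae BJ5465 synthetic nanobody display library ran 36–48 hours. The cells were then stained for 1 hour at 4 °C with 10% biotinylated, detergent-solubilized Sf9 membrane reagent, pulled down on streptavidin microbeads and FACS-sorted into low and high (top ~1%) gates on expression and reagent-binding fluorescence. Labels for polyreactivity follow the gate of origin.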

| Sequence | polyreactivity (PSR sort gate) |
| --- | --- |
| QVHLVESGGGLVQAGGILRLSCAASGFIYTKYTMGSYRQAPGKEREMVAAITGRGTSTYADSVKGRFTISRDNAKNSVYLQMNRLKPEDTAVYYCASVGWFADFMFSDINGYYWGQGTEVTVSS | low polyreactivity |
| QVHLVESGGGLVQAGGILRLSCAASGRTFRRYAMGWYRQAPGKERELVAVISGGGTYYADSVKGRFTISRDNAKNTVYLQMNSLKPEDTAVYYCNARSYQSARVRGGYWGQGTQVTVSS | high polyreactivity |
| QVHLVESGGGLVQAGGILRLSSPASGSISGWYAMGWSRQEPGKERELVSDMTRGGRTYYADSVKGRFTISRDNAKNTVYLQMNSLKPEDTAVYYCASPSPSYYYRSGWGSYYSWGLGTQVTVSS | high polyreactivity |
| QVHLVESGGGLVQAGGILRLSWASSGFIFPRYAMGSYRQAPGKERELVAGITSRGTGTYYADSVKGRFTISRDNAKNTVYLQMNSLKQEDTAVYYCARLSTKPLPYDDWGQGTQVTVSS | high polyreactivity |
| QVHLVESGGGLVQAGGILRVSCAASGRIFRTYVMGWYRQAPGKERELVAAITQRGGTTYYADSVKRRFTISRDNAKNTVYLQMNSLKPEDTAVYYCATRYRYYTERDYWGLGTQVTVSS | high polyreactivity |
| QVHLVESGGGLVQAGGNLRLICAASGSIFSDYTIGWYRQAPGKERELVAVITLSSGSTYFADSVKGRFTISRDNAKNTDYLQMNSLKPEDTAVYYCAADGWYYFGSGVFEYDYWRQGTQVTVSS | low polyreactivity |
| QVHLVESGGGLVQAGGRLRLSCAASGSIFGYNAMGWYRQAPGKERELVAAISSTGGSTYYADSVKGRFTISRDNAKNTVYLQMNSLYPEDTAVYYCAKRGQSYFKGYDYWGQGTQVTVSS | low polyreactivity |
| QVHLVESGGGLVQAGGSHRITCAASGITFVGNARGWYRQAPGKERELVAAIRWSSGRTYYADSVKGRFTISRDNAKNTVYLQMNSLKPEDTAVYYCATDYHYSQYYRFYYWGQGTQVTVSS | high polyreactivity |
| QVHLVESGGGLVQAGGSLLLSCAASGGTFAAYAMGWYRQAPGKERELVAAIDSGGTTKYADSVKGRFTISRDNAKNTVYLQMSCLKPEDTAVYYCAAVYRITFGYHTSRAFDYWGQGTQVTVSS | low polyreactivity |
| QVHLVESGGGLVQAGGSLRISCAASGNIFPNNGMGWNRQAPGKERELVAAISFNGDDTYADSVKGRFTISRDNAKNTVYLKMNSLNPEDTAVYYCNAVPGADQFSAPVITTAEDYWGQGTQVTVSS | low polyreactivity |
| QVHLVESGGGLVQAGGSLRISCAASGRTFYIYAMGWYRQAPGKERELVAAISWGSGSTYYADSVKGRFTISRDNAKNTVYLQMNSLKPEDTAVYYCAADYAYPSEWTYDYWGQGTQVTVSS | low polyreactivity |
| QVHLVESGGGLVQAGGSLRLNCAASGRTFTEYAMGWYTPAPGKERELVAAITTVGSTYYADSVKGRFTISRDNAKNTVDIQMNSQKPEDTAVYYCDVERDYWTKASYYWGQGTQVTVSS | low polyreactivity |
| QVHLVESGGGLVQAGGSLRLRCAASGFILGAYAMGWYRQAPGKERELDAAISYSGGRTYYADSVKGRFTISRDNAKNTVYLQMNSQNPEDTAVYYCAADWYYGYFFSVAGEHEYCGQGTQVTVSS | high polyreactivity |
| QVHLVESGGGLVQAGGSLRLSCAASASIFRYYAMGRYRQAPGKERELVATISSGGRTYYADSVKGRFTISRDNAKNTVYLQMNSLKPEDPAVYYCAAVRLTWTAKYNYWGQGTQVTVSS | high polyreactivity |
| QVHLVESGGGLVQAGGSLRLSCAASGFIFIRYAMGWYRQAPGKERELVAAINGGGSSTYYADSVKGRFTISRDNAKYTVYLQMNSLKPEDTAVDYCDADTDSWWYYLYYGDGFDYWGQGTQVTVSS | high polyreactivity |
| QVHLVESGGGLVQAGGSLRLSCAASGFIFISNSMGCYRQEPGKERELVARISDTDRTHYADSVKGRFTISRDNAKNTVYLQMNSQNPEDTAVYSCATDQSLLDKVYYDVQYDFWGQGTQVTVSS | low polyreactivity |
| QVHLVESGGGLVQAGGSLRLSCAASGFIFSYYAMGWYRQAPGKERELVAAISWTGGSTYYADSVKGRFTISRDNAKNTVYLQMNSLKPEDTAVYYCNKYYRAWLLWDYGYWGQGTQVTVSS | high polyreactivity |
| QVHLVESGGGLVQAGGSLRLSCAASGFIFVRNAMGWYSQAPGKEREFVAAITRSGGSTYYADSVKVRFTISRDNAKNTVYLQMYSLKPEDTAVYYCAVLYHSRDSYTYRDEDYWGQGTQVTVSS | low polyreactivity |
| QVHLVESGGGLVQAGGSLRLSCAASGFIFYPYAMGWYRQAPGKERELVAAITSSGGSTYYADSVKGRFTISRDNAKNTVYLQMNSLKPEDTAVYYCAAYTSYYGTIIAYRYYYWGQGTQVTVSS | high polyreactivity |
| QVHLVESGGGLVQAGGSLRLSCAASGFNFLIYAMGWYRQAPGKERELVAAITLRGSGTYYADSVKGRFTISRDNAKNTVYLQMNSLKPEDTAVYDCAAGTARRTYDYWGQGTQVTVSS | low polyreactivity |
| QVHLVESGGGLVQAGGSLRLSCAASGFTFDFYAMGWYRQAPGKERELVAAISKNDGTTYYADSVKGRFTISRDNAKNTVYLQLNSLKPEDTAVYYCAAESGYPVYTYVSSGDYWGQGTQVTVSS | low polyreactivity |
| QVHLVESGGGLVQAGGSLRLSCAASGFTFPHYAMGWYRQAPGKERELVAAISFSGGRTYYADSVKGRFTISRDHSKNTVYVQMNSLKPEDTAVYYCNVPYYSFRELSYYYWGQGTQVTVSS | high polyreactivity |

| Sequence | polyreactivity (PSR sort gate) |
| --- | --- |
| QVHLVESGGGLVQAGGSLRLSCAASGFTFSFYAMGWYRQAPWKEIEFVAAITNSGGSTYYADSVKGRFTISRDNSKNSVYLQMNSLKPEDTAVYYCATKRAWPGYFTYYYWGQGTQVTVSS | high polyreactivity |
| QVHLVESGGGLVQAGGSLRLSCAASGFTFVQYAMGWYRQAPGKERELVATISKSGGITYYADSVKGRFTISRDNAKNTVYLQMNSLKPEDTSVYYCAAAWYYSSRGFHATWGHDYWGQGTQVTVSS | low polyreactivity |
| QVHLVESGGGLVQAGGSLRLSCAASGFTFVRYAMGWYRQAPGKERELVASISYSGGSTYYADSVKGRFTISRDNAKNTVYVQMNSLKPEATAVYYCAAVIYRGYYYWGQGTQVTVSS | high polyreactivity |
| QVHLVESGGGLVQAGGSLRLSCAASGFTFYQYAMGWYRQAPGKERELVAAITASGGSTYYADSVKRRFTISRDNAKNTVYLQMNSLKPEDTAVYYCAAERYFVLYRYYSYAYYYWGQGTQVTVSS | high polyreactivity |
| QVHLVESGGGLVQAGGSLRLSCAASGFTFYRYAMGWYRQAPGKDRELVAAITWSGGSTYYADSVKGRFTISRDNAKNTVYLQMNSLKPEDTAVYYCAADIYDGGFDYWGQGTQVTVSS | low polyreactivity |
| QVHLVESGGGLVQAGGSLRLSCAASGFTFYYYAMGWYRQAPGKERELVATISRSVGSTYYADSVKGRFTISRDNAKNTVYLQMNSLKPEDTAVYYCAVGGYLRSVSYIRLGNYYWGQGTQVSVSS | high polyreactivity |
| QVHLVESGGGLVQAGGSLRLSCAASGGNFRPNAMGWYRQAPGKERELVASITRGGSTNYADSVKGRFTISRDNAKNTVYLQMNSLKPEDTAVYYCSALLRYTRTLYYSWGQGTQVTVSS | high polyreactivity |
| QVHLVESGGGLVQAGGSLRLSCAASGGTFRVYAMGWYRQAPGKEWELVASISNGGSTNYADSEKGRFTISRDNAKNTVYLQMNSLKPEDTAVYYCAADPSYEVWYYDSPEYNYWGQGTQVTVSS | low polyreactivity |
| QVHLVESGGGLVQAGGSLRLSCAASGGTFYYNTMGWSRQAPGKERELVAAITSGTSTNYADSVKGRFTISRDNAKNTVYLQMNSRIQEDTAVFDCAADPDADDPRRGYDYWGQGTQVTVSS | low polyreactivity |
| QVHLVESGGGLVQAGGSLRLSCAASGIIFPWTAMGWYRQAPGKERELVAAITSRGSNTYYADSVKGRFTISRDNAKNTVYLQMNSLKPEDTAVYYCAVDSFYYGKYGYWGQGSQVTVSS | high polyreactivity |
| QVHLVESGGGLVQAGGSLRLSCAASGIIFYYNAMGWYRQAPGKERELVAVISSAGNTNYADSVKGRFTISRDNAKNTVYLQMNCLKPEDTAVYYCAAGTISRIDERNYFKMDYWGQGTQVTVSS | low polyreactivity |
| QVHLVESGGGLVQAGGSLRLSCAASGITFDEYTMGWYRQAPGKERELVAAIDSDGSTTYADSVKGRFTISRDNAKNTVYLQMNSLKPEDSAVYYCNAEHGDFSWHYLLYDYDYWGPGTQVTVSS | low polyreactivity |
| QVHLVESGGGLVQAGGSLRLSCAASGITFFWYTMGWYRQAPGKDRELVAAISESGGDTYYADSVKGRFTISRDNAKNTVYLQMKILKPEDTAVYYCAADDSYYGLDYWGQGTQVTVSS | low polyreactivity |
| QVHLVESGGGLVQAGGSLRLSCAASGITFKRYAMGWYRQAPGKERELVAAISDIGGRTYYADSVKGRFTISRDNAKNTVYLQMNSLKPEDTAGYFCAADYYSPVDWYYYWGQGTQVTVSS | high polyreactivity |
| QVHLVESGGGLVQAGGSLRLSCAASGITFNSNAMGWYRQAPGKERELVAAITVSGGNTYYADSVKGRFTISRDNAKNTVYLQMYSLKPEDTAVYYCNTASDVSWYVHYYYWRQGTQVTVSS | low polyreactivity |
| QVHLVESGGGLVQAGGSLRLSCAASGITFRTYALGGYRQAPGKERELVAAITRGDSTYYADSVKGRFTISRDNAKNTVYLQMNILKPEDTAVYYCNTETTDFRRYEYWGQGTQVTVSS | low polyreactivity |
| QVHLVESGGGLVQAGGSLRLSCAASGITFSKYEMGWYRQAPWKERELVAAITSTGSTYYADSVKGRFTISRDNAKNTVYLQMNSVKPEDTAVYYCAAERRVFYYCHKLTYWYDYWGQGTQVTVSS | low polyreactivity |
| QVHLVESGGGLVQAGGSLRLSCAASGITFSPYAMGWSRQAPGKERELVAAISSGSSTKYADSVKGRFTISRDNAKNTVYLQMNSLKPEDTAVYYCAARWFDGYAAYGYWGQGTEVTVSS | high polyreactivity |
| QVHLVESGGGLVQAGGSLRLSCAASGLIFAFYGMGWYRPAPGKERELVASIDKSGGSTYADSVKGRFTISRDNAKNTVYLQMNSLKPEDTAVSYCATNVGGGWAYEYWGQGTQVTVSS | low polyreactivity |
| QVHLVESGGGLVQAGGSLRLSCAASGLIFLWNAMGWYRQAPGKERELVAAISWSGGSTYYADSVKGRFTISRDNAKNTVYLQMNSLKPEDTAVYYCIRLLSLEFGFWGQGTQVTVSS | high polyreactivity |
| QVHLVESGGGLVQAGGSLRLSCAASGLTFRYYAMGWYRPAPGKERELVAAISWSGGSTYYADSVKGRFTISRDNAKNTVYLQMNSQKPEDTAVYDCNTVGRSSSLSVFLIGYGYWGQATQVTVSS | high polyreactivity |
